B1: Twister Ribozyme (parent)
chain: AACACUGCCAAUGCCGGUCCCAAGCCCGGAUAAAAGUGGAGGGGGCGG

Variants of: B1
Assay: self-cleavage, relative activity (ratio to wild type); higher = more cleavage; co-transcriptional

Compared with C8A C19A, A32G G36C is higher in self-cleavage: 0.0947 for the first, 0.403 for the second.

First: C21G G24C
Second: C3A G47C
The self-cleavage of the first is lower: 0.109 for the first, 0.145 for the second.

Going from C9G C25U to A1C G45U, the self-cleavage rises from 0.194 to 0.22.

Compared with U12A G24A, C9G G48C is higher in self-cleavage: 0.103 for the first, 0.511 for the second.

Compared with G16A G38U, C26G U31C is lower in self-cleavage: 0.656 for the first, 0.165 for the second.

Compared with C26G U31A, U12A A23U is higher in self-cleavage: 0.427 for the first, 0.767 for the second.

First: G17A A40C
Second: G17A A40U
The self-cleavage of the first is lower: 0.105 for the first, 0.117 for the second.

First: G42U
Second: U12A G28A
The self-cleavage of the first is lower: 0.445 for the first, 0.912 for the second.

First: C20G C26A
Second: G29C A40C
The self-cleavage of the first is lower: 0.0588 for the first, 0.153 for the second.

Compared with U18A A40C, C5A G28A is higher in self-cleavage: 0.133 for the first, 0.232 for the second.

Going from A11G G39U to C8U G43U, the self-cleavage falls from 0.224 to 0.131.

Compared with C25G A32U, C26U C46A is higher in self-cleavage: 0.19 for the first, 0.207 for the second.

Compared with G39C C46A, A23C G44C is higher in self-cleavage: 0.13 for the first, 0.212 for the second.

Compared with G43U C46G, A32C A33U is higher in self-cleavage: 0.409 for the first, 0.865 for the second.

Going from A2G G29A to A32G A40U, the self-cleavage falls from 0.214 to 0.117.

First: U12C G13C
Second: C5U U37G
The self-cleavage of the first is higher: 0.453 for the first, 0.432 for the second.

Compared with U31A G36A, G24U G38C is lower in self-cleavage: 0.614 for the first, 0.103 for the second.

Compared with C14G C19U, A32C G45C is higher in self-cleavage: 0.426 for the first, 0.546 for the second.

First: A22U G41A
Second: U18G G48C
The self-cleavage of the first is lower: 0.102 for the first, 0.111 for the second.

Compared with G41U G47A, A4U G45A is lower in self-cleavage: 0.349 for the first, 0.105 for the second.

Compared with C3A A35G, A1U G24U is lower in self-cleavage: 0.222 for the first, 0.0764 for the second.

Going from C21A C25U to C21A C25G, the self-cleavage falls from 0.0609 to 0.0507.

Going from G28C G42C to A10U C15A, the self-cleavage rises from 0.296 to 0.619.

First: C14U G29A
Second: G44U C46A
The self-cleavage of the first is higher: 1.06 for the first, 0.476 for the second.

Compared with A32U G45U, U31G G36C is lower in self-cleavage: 0.819 for the first, 0.712 for the second.

Going from A34U U37G to U37A G47C, the self-cleavage falls from 0.372 to 0.292.

Compared with G17C G47A, U12A A34G is higher in self-cleavage: 0.0753 for the first, 1.02 for the second.

Going from A22C G47U to C3A G43U, the self-cleavage falls from 0.917 to 0.0615.

Going from G13U C21U to G42A G45C, the self-cleavage rises from 0.0908 to 0.187.

Compared with A2G A35C, C26U U31G is higher in self-cleavage: 0.308 for the first, 0.503 for the second.

Compared with C19U U37G, C14U A34C is lower in self-cleavage: 0.621 for the first, 0.461 for the second.

Going from A2G A32C to A34C C46U, the self-cleavage falls from 0.414 to 0.251.

First: A35G G42C
Second: U6A G41C
The self-cleavage of the first is lower: 0.141 for the first, 0.182 for the second.

Compared with C46G, A34U G41A is lower in self-cleavage: 0.951 for the first, 0.163 for the second.

First: C25U G41A
Second: A1C A4G
The self-cleavage of the first is higher: 0.194 for the first, 0.131 for the second.

First: G28A G44U
Second: U12C A34G
The self-cleavage of the first is higher: 0.874 for the first, 0.821 for the second.

Compared with C19A C25U, C3A C14U is higher in self-cleavage: 0.0834 for the first, 0.176 for the second.

First: C15U G36A
Second: C14G A23U
The self-cleavage of the first is higher: 0.454 for the first, 0.0448 for the second.

First: C19U G42A
Second: U12A C25U
The self-cleavage of the first is lower: 0.17 for the first, 0.947 for the second.

Going from G24C C26G to G13U C19U, the self-cleavage rises from 0.0413 to 0.0924.

First: G36C G48C
Second: A22G G45A
The self-cleavage of the first is higher: 0.657 for the first, 0.277 for the second.

Compared with G43A G45A, C25U U31G is higher in self-cleavage: 0.318 for the first, 0.627 for the second.

Going from C25G C27U to U18G A40G, the self-cleavage falls from 0.136 to 0.0494.

Going from C26A U31G to A34C A40G, the self-cleavage falls from 0.691 to 0.145.

First: G28A C46U
Second: C9U A34G
The self-cleavage of the first is higher: 0.918 for the first, 0.3 for the second.

Compared with A11G A35C, A2C G29C is lower in self-cleavage: 0.903 for the first, 0.0975 for the second.

Going from C20U C21G to U12A G45U, the self-cleavage rises from 0.0649 to 1.02.

Compared with A32C G48C, G13U C20A is lower in self-cleavage: 1.12 for the first, 0.0934 for the second.

First: A2U G36A
Second: C8U G45U
The self-cleavage of the first is lower: 0.158 for the first, 0.313 for the second.

First: G29C G39C
Second: C3G
The self-cleavage of the first is lower: 0.14 for the first, 0.541 for the second.

Compared with C3A, C5G U6A is higher in self-cleavage: 0.228 for the first, 0.404 for the second.

Compared with G13C G38U, A10G A30U is higher in self-cleavage: 0.158 for the first, 0.984 for the second.

First: A35G C46A
Second: U12G G24A
The self-cleavage of the first is higher: 0.747 for the first, 0.177 for the second.

Compared with A40C G42A, A40C G42U is lower in self-cleavage: 0.152 for the first, 0.139 for the second.

Compared with C25G C26G, C25G C26U is lower in self-cleavage: 0.0826 for the first, 0.0513 for the second.

First: A34G G45C
Second: A10U G47U
The self-cleavage of the first is lower: 0.274 for the first, 1.01 for the second.

First: A33G G39A
Second: U18C G47U
The self-cleavage of the first is higher: 0.362 for the first, 0.288 for the second.

First: G17U C27U
Second: A10C G13U
The self-cleavage of the first is lower: 0.207 for the first, 0.677 for the second.

Going from A2G A40U to A2G A40G, the self-cleavage falls from 0.107 to 0.0967.

Going from A33C G42C to U12C G17A, the self-cleavage rises from 0.19 to 0.532.

Going from A1U A4C to G7A G44C, the self-cleavage rises from 0.0725 to 0.322.

Going from A1C C20G to C19A G29U, the self-cleavage rises from 0.0894 to 0.207.

Compared with U6A G38U, C25U G45U is higher in self-cleavage: 0.188 for the first, 0.592 for the second.

First: C15G C27A
Second: G29U A32G
The self-cleavage of the first is lower: 0.198 for the first, 0.781 for the second.

First: G16U A22G
Second: G7U C8G
The self-cleavage of the first is higher: 0.21 for the first, 0.114 for the second.

Compared with G42U G43C, A11U A40G is lower in self-cleavage: 0.114 for the first, 0.0881 for the second.

Going from G17C G38U to A11C G42A, the self-cleavage rises from 0.073 to 0.248.

Going from U37G G48C to A2G G48A, the self-cleavage falls from 0.843 to 0.217.

Going from C20A A34G to C20A A34U, the self-cleavage falls from 0.104 to 0.0698.

First: C21U G41A
Second: G13U A30C
The self-cleavage of the first is lower: 0.641 for the first, 0.665 for the second.

First: C8A A33U
Second: C9A G39A
The self-cleavage of the first is higher: 0.28 for the first, 0.167 for the second.

Compared with A4U A10G, U37C G47U is higher in self-cleavage: 0.125 for the first, 0.585 for the second.

Compared with U18A G24U, G42C G45A is higher in self-cleavage: 0.094 for the first, 0.329 for the second.

First: C21U G45U
Second: C20G G44U
The self-cleavage of the first is higher: 0.118 for the first, 0.0685 for the second.

Going from G7U A10C to C20G A34G, the self-cleavage falls from 0.117 to 0.0924.

Compared with C20G A34U, G28U G47C is higher in self-cleavage: 0.074 for the first, 0.287 for the second.

Compared with A33C G43C, A34U G39U is higher in self-cleavage: 0.107 for the first, 0.139 for the second.

Compared with U18G A35U, U31A C46A is higher in self-cleavage: 0.0933 for the first, 0.816 for the second.

Going from C26G A40U to A10C U18C, the self-cleavage rises from 0.12 to 0.787.

First: C21G G38A
Second: C8A G43U
The self-cleavage of the first is lower: 0.11 for the first, 0.119 for the second.

Compared with G7C G44U, G45C C46G is higher in self-cleavage: 0.0818 for the first, 1.61 for the second.

Compared with C3U G41C, G42A G43C is higher in self-cleavage: 0.099 for the first, 0.113 for the second.

Going from G7C A40U to G36A G39C, the self-cleavage rises from 0.0764 to 0.115.

Work on C20U G29A yielded a self-cleavage of 0.81.

Source: the RNAGym collection of RNA variant scans (doi:10.7554/elife.80360)
